Experimental data from paper PMC11417369, “DNA sequence and chromatin differentiate sequence-specific transcription factor binding in the human malaria parasite Plasmodium falciparum”.

B1: XGTACX_negctrl_site364 (dsDNA)
DNA 1: ATAAAATATTAGACATTTATTAATATTACACATATC
DNA 2: GATATGTGTAATATTAATAAATGTCTAATATTTTAT
B2: XGTACX_negctrl_site420 (dsDNA)
DNA 1: AAAAAATAGAATATAAAAATAAAGGAATTAAATTAA
DNA 2: TTAATTTAATTCCTTTATTTTTATATTCTATTTTTT
B3: XGTACX_negctrl_site307 (dsDNA)
DNA 1: CTTTATCTTCTCACGAAGATTGAATAAGGTATTCTT
DNA 2: AAGAATACCTTATTCAATCTTCGTGAGAAGATAAAG
B4: XGTACX_negctrl_site587 (dsDNA)
DNA 1: TATGAAAAAAAAAAAAAAAAAAAAAAAAAAAAAAAA
DNA 2: TTTTTTTTTTTTTTTTTTTTTTTTTTTTTTTTCATA
B5: XGTACX_negctrl_site67 (dsDNA)
DNA 1: AACAAATAAAGCTATGACATGTTAAAATTGTTTCAC
DNA 2: GTGAAACAATTTTAACATGTCATAGCTTTATTTGTT
B6: XGTACX_negctrl_site347 (dsDNA)
DNA 1: AAAATGGAACTAGGAATAATATAAGAAGATAAAAGG
DNA 2: CCTTTTATCTTCTTATATTATTCCTAGTTCCATTTT
B7: XGTACX_negctrl_site87 (dsDNA)
DNA 1: GCATATTTTCCCTGTGAATAAAGTTTTTTTTTTTAT
DNA 2: ATAAAAAAAAAAACTTTATTCACAGGGAAAATATGC
B8: XGTACX_negctrl_site418 (dsDNA)
DNA 1: TTTTTTTTTTTTTTTTCTTTTTTTTTTTTAAATAAG
DNA 2: CTTATTTAAAAAAAAAAAAGAAAAAAAAAAAAAAAA
B9: XGTACX_negctrl_site69 (dsDNA)
DNA 1: AGAGTAGGAAATGGAAAAATAAAATAAATAAATAAA
DNA 2: TTTATTTATTTATTTTATTTTTCCATTTCCTACTCT
B10: XGTACX_negctrl_site308 (dsDNA)
DNA 1: TACATAATTTAAAATTTTATAAGTTGTAATTCGTTT
DNA 2: AAACGAATTACAACTTATAAAATTTTAAATTATGTA
B11: XGTACX_negctrl_site85 (dsDNA)
DNA 1: TACATATTTTGTATATATTATTTATTTTATTAGTTT
DNA 2: AAACTAATAAAATAAATAATATATACAAAATATGTA
B12: XGTACX_negctrl_site148 (dsDNA)
DNA 1: TTAAAACATATTTTGAATTAATATATTTTAATATTA
DNA 2: TAATATTAAAATATATTAATTCAAAATATGTTTTAA
B13: XGTACX_negctrl_site528 (dsDNA)
DNA 1: TTTTATCAAATATTTATTTTATACATAAATATTTAT
DNA 2: ATAAATATTTATGTATAAAATAAATATTTGATAAAA
B14: XGTACX_negctrl_site482 (dsDNA)
DNA 1: AGAAAAAACAAAAGAGAAATGAAAAAAAAAAAAAAA
DNA 2: TTTTTTTTTTTTTTTCATTTCTCTTTTGTTTTTTCT
B15: XGTACX_negctrl_site426 (dsDNA)
DNA 1: TATTAAAATTAAAAAAAAAAAAAAAAGCAATAAAAA
DNA 2: TTTTTATTGCTTTTTTTTTTTTTTTTAATTTTAATA
B16: XGTACX_negctrl_site612 (dsDNA)
DNA 1: TAAACATTTTTAATTTTGTAAAATTTTAAATAAAAA
DNA 2: TTTTTATTTAAAATTTTACAAAATTAAAAATGTTTA
B17: XGTACX_negctrl_site143 (dsDNA)
DNA 1: TATTTCGTAATTTAATAATATACAAGAAATATATAT
DNA 2: ATATATATTTCTTGTATATTATTAAATTACGAAATA
B18: XGTACX_negctrl_site427 (dsDNA)
DNA 1: TTCTATATTTTAGCTGATAATATTATGAGCTTCACT
DNA 2: AGTGAAGCTCATAATATTATCAGCTAAAATATAGAA
B19: XGTACX_negctrl_site72 (dsDNA)
DNA 1: CTTTCAAAATTATTTATAGTATCTCATATTTTAGTA
DNA 2: TACTAAAATATGAGATACTATAAATAATTTTGAAAG
B20: XGTACX_negctrl_site373 (dsDNA)
DNA 1: ATTTATAATGATTTTTTTAGTAATCTTGTTATTTTT
DNA 2: AAAAATAACAAGATTACTAAAAAAATCATTATAAAT
B21: XGTACX_negctrl_site542 (dsDNA)
DNA 1: TACATTTCATTGTAATCATAAAAAATAAAGAAAAAA
DNA 2: TTTTTTCTTTATTTTTTATGATTACAATGAAATGTA
B22: XGTACX_negctrl_site539 (dsDNA)
DNA 1: TAAGGATAAATAAAATGAAATGAAATAAATAAATGA
DNA 2: TCATTTATTTATTTCATTTCATTTTATTTATCCTTA
B23: XGTACX_negctrl_site80 (dsDNA)
DNA 1: AAACATTTATCAATGAATCTTTTAATAAGTGTAAAG
DNA 2: CTTTACACTTATTAAAAGATTCATTGATAAATGTTT
B24: XGTACX_negctrl_site357 (dsDNA)
DNA 1: ATAATTATATAAATATATATAATATATATATGAAAA
DNA 2: TTTTCATATATATATTATATATATTTATATAATTAT
B25: XGTACX_negctrl_site298 (dsDNA)
DNA 1: AGTTTTTATTAAAACAAAATTTAATTATAACGTTGA
DNA 2: TCAACGTTATAATTAAATTTTGTTTTAATAAAAACT
B26: XGTACX_negctrl_site480 (dsDNA)
DNA 1: TTGATAAAAAAAAAAAAATAAAAAAAAAATAAAAAA
DNA 2: TTTTTTATTTTTTTTTTATTTTTTTTTTTTTATCAA
B27: XGTACX_negctrl_site278 (dsDNA)
DNA 1: TAATATTTCTTATTTTATATTTGTATATGAATGGAT
DNA 2: ATCCATTCATATACAAATATAAAATAAGAAATATTA
B28: XGTACX_negctrl_site513 (dsDNA)
DNA 1: GAAAAAAAAAAAAAAAGAAAATTCATATTTTTAATA
DNA 2: TATTAAAAATATGAATTTTCTTTTTTTTTTTTTTTC
B29: XGTACX_negctrl_site314 (dsDNA)
DNA 1: TAATTTATAAGGTATAACAACAATTGCATCTATCAC
DNA 2: GTGATAGATGCAATTGTTGTTATACCTTATAAATTA
B30: XGTACX_negctrl_site555 (dsDNA)
DNA 1: TTCTTTATTTATCATTATAAGAAGAGTTGATTTGTT
DNA 2: AACAAATCAACTCTTCTTATAATGATAAATAAAGAA
B31: XGTACX_negctrl_site47 (dsDNA)
DNA 1: ATATATATATAATTATATAAAATATATCATATGTTA
DNA 2: TAACATATGATATATTTTATATAATTATATATATAT
B32: XGTACX_negctrl_site355 (dsDNA)
DNA 1: AAAGGGGAAAATATTATACATATAATAAATCCGTAT
DNA 2: ATACGGATTTATTATATGTATAATATTTTCCCCTTT
B33: XGTACX_negctrl_site599 (dsDNA)
DNA 1: TTTTTGTAAACCTACTTCATAATTATTTATATCTAT
DNA 2: ATAGATATAAATAATTATGAAGTAGGTTTACAAAAA
B34: XGTACX_negctrl_site240 (dsDNA)
DNA 1: TTTTTTATAAAATTTTTTTTTTAAAATATTAAAACT
DNA 2: AGTTTTAATATTTTAAAAAAAAAATTTTATAAAAAA
B35: XGTACX_negctrl_site479 (dsDNA)
DNA 1: AATCAATTAATATTAGCATAAAATTTTATTATTTTG
DNA 2: CAAAATAATAAAATTTTATGCTAATATTAATTGATT
B36: XGTACX_negctrl_site118 (dsDNA)
DNA 1: AAGGTATACACTGCTTTATCAAGTTTAACTCTTTTT
DNA 2: AAAAAGAGTTAAACTTGATAAAGCAGTGTATACCTT
B37: XGTACX_negctrl_site380 (dsDNA)
DNA 1: TTTTTTAAAAGATATATAATATGTATGAATATTCAA
DNA 2: TTGAATATTCATACATATTATATATCTTTTAAAAAA
B38: XGTACX_negctrl_site159 (dsDNA)
DNA 1: TACAAAAAGAATGAAAAATATATAATAAAAATAAAA
DNA 2: TTTTATTTTTATTATATATTTTTCATTCTTTTTGTA
B39: XGTACX_negctrl_site221 (dsDNA)
DNA 1: TATTTTATAAATACAAGTAAAATTAAATATATAATA
DNA 2: TATTATATATTTAATTTTACTTGTATTTATAAAATA
B40: XGTACX_negctrl_site400 (dsDNA)
DNA 1: AATAATGAAACAGGAAAAAAATATTGTTAAAATGTA
DNA 2: TACATTTTAACAATATTTTTTTCCTGTTTCATTATT
B41: XGTACX_negctrl_site60 (dsDNA)
DNA 1: TACAGTTTTTCTTTGAATTTATCAAGTTTTTTTCCC
DNA 2: GGGAAAAAAACTTGATAAATTCAAAGAAAAACTGTA
B42: XGTACX_negctrl_site76 (dsDNA)
DNA 1: TTATTATTTATTTTTTATTATTATTATTTTTTTTTA
DNA 2: TAAAAAAAAATAATAATAATAAAAAATAAATAATAA
B43: XGTACX_negctrl_site1 (dsDNA)
DNA 1: TACAAACAAACACATAGCAATATATGTTATCAAAAA
DNA 2: TTTTTGATAACATATATTGCTATGTGTTTGTTTGTA

What follows are binders tested against T1, AP2-G D1 (Plasmodium falciparum, UniProt Q8I5I9 2123-2245) (assay: gcPBM; about 25 ug protein; PBS, 1% milk, 0.2 mg/ml BSA, salmon testes DNA, 0.03% Triton X-100). Conditions: tags: N-terminal GST (pGEX-4T-1), kept; label: surface-attached array probe.
T1 sequence: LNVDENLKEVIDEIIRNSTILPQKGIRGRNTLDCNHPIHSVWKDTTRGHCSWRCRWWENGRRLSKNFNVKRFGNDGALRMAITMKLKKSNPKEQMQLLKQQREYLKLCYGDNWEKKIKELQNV
B1 was tested, and the binding signal was 9.58 ln median PBM intensity, better of two orientations.
B2 was tested, and the binding signal was 9.64 ln median PBM intensity, better of two orientations.
With B3 the binding signal was 9.6 ln median PBM intensity, better of two orientations.
In the case of B4, the binding signal is reported as 9.69 ln median PBM intensity, better of two orientations.
B5 was tested, and the binding signal was 9.59 ln median PBM intensity, better of two orientations.
In the case of B6, the binding signal is reported as 9.72 ln median PBM intensity, better of two orientations.
With B7 the binding signal was 9.67 ln median PBM intensity, better of two orientations.
For B8, the binding signal was 9.64 ln median PBM intensity, better of two orientations.
B9 was tested, and the binding signal was 9.72 ln median PBM intensity, better of two orientations.
For B10, the binding signal was 9.65 ln median PBM intensity, better of two orientations.
For B11, the binding signal was 9.55 ln median PBM intensity, better of two orientations.
In the case of B12, the binding signal is reported as 9.55 ln median PBM intensity, better of two orientations.
B13 was tested, and the binding signal was 9.58 ln median PBM intensity, better of two orientations.
In the case of B14, the binding signal is reported as 9.54 ln median PBM intensity, better of two orientations.
B15 was tested, and the binding signal was 9.73 ln median PBM intensity, better of two orientations.
In the case of B16, the binding signal is reported as 9.56 ln median PBM intensity, better of two orientations.
For B17, the binding signal was 9.58 ln median PBM intensity, better of two orientations.
For B18, the binding signal was 9.67 ln median PBM intensity, better of two orientations.
With B19 the binding signal was 9.65 ln median PBM intensity, better of two orientations.
In the case of B20, the binding signal is reported as 9.69 ln median PBM intensity, better of two orientations.
In the case of B21, the binding signal is reported as 9.7 ln median PBM intensity, better of two orientations.
For B22, the binding signal was 9.56 ln median PBM intensity, better of two orientations.
B23 was tested, and the binding signal was 9.73 ln median PBM intensity, better of two orientations.
For B24, the binding signal was 9.61 ln median PBM intensity, better of two orientations.
For B25, the binding signal was 9.58 ln median PBM intensity, better of two orientations.
With B26 the binding signal was 9.72 ln median PBM intensity, better of two orientations.
In the case of B27, the binding signal is reported as 9.65 ln median PBM intensity, better of two orientations.
For B28, the binding signal was 9.66 ln median PBM intensity, better of two orientations.
In the case of B29, the binding signal is reported as 9.69 ln median PBM intensity, better of two orientations.
B30 was tested, and the binding signal was 9.71 ln median PBM intensity, better of two orientations.
In the case of B31, the binding signal is reported as 9.64 ln median PBM intensity, better of two orientations.
B32 was tested, and the binding signal was 9.67 ln median PBM intensity, better of two orientations.
B33 was tested, and the binding signal was 9.69 ln median PBM intensity, better of two orientations.
With B34 the binding signal was 9.66 ln median PBM intensity, better of two orientations.
B35 was tested, and the binding signal was 9.57 ln median PBM intensity, better of two orientations.
B36 was tested, and the binding signal was 9.62 ln median PBM intensity, better of two orientations.
In the case of B37, the binding signal is reported as 9.71 ln median PBM intensity, better of two orientations.
In the case of B38, the binding signal is reported as 9.63 ln median PBM intensity, better of two orientations.
With B39 the binding signal was 9.64 ln median PBM intensity, better of two orientations.
In the case of B40, the binding signal is reported as 9.6 ln median PBM intensity, better of two orientations.
With B41 the binding signal was 9.65 ln median PBM intensity, better of two orientations.
For B42, the binding signal was 9.62 ln median PBM intensity, better of two orientations.
For B43, the binding signal was 9.63 ln median PBM intensity, better of two orientations.
